{"source": "patent US20160102121A1", "about": "(UNIVERSITY OF NORTH CAROLINA AT CHAPEL HILL, published 2016)", "target": "epithelial Na+ channel (ENaC) on human bronchial epithelial cultures (human, UniProt P37088 1-669; P51168 1-640; P51170 1-649)", "sequence (P37088 whole entry, chain 1 of 3)": "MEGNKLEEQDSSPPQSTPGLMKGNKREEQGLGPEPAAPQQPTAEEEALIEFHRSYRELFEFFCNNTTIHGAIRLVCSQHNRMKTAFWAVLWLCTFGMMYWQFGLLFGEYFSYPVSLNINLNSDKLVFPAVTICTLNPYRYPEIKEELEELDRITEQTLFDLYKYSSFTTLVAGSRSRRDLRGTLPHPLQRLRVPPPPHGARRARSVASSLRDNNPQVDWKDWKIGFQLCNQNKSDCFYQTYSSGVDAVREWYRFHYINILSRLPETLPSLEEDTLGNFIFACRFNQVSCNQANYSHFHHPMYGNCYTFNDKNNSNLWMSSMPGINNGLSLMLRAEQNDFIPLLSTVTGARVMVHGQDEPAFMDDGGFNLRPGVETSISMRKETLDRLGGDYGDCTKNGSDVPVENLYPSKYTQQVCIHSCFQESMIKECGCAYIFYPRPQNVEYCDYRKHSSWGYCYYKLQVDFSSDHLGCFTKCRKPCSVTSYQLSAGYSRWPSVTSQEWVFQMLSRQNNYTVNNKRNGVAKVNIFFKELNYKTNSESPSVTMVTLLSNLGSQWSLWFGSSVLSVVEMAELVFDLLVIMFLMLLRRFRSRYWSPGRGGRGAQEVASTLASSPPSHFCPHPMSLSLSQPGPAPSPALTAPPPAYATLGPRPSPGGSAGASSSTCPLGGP", "sequence (P51168 whole entry, chain 2 of 3)": "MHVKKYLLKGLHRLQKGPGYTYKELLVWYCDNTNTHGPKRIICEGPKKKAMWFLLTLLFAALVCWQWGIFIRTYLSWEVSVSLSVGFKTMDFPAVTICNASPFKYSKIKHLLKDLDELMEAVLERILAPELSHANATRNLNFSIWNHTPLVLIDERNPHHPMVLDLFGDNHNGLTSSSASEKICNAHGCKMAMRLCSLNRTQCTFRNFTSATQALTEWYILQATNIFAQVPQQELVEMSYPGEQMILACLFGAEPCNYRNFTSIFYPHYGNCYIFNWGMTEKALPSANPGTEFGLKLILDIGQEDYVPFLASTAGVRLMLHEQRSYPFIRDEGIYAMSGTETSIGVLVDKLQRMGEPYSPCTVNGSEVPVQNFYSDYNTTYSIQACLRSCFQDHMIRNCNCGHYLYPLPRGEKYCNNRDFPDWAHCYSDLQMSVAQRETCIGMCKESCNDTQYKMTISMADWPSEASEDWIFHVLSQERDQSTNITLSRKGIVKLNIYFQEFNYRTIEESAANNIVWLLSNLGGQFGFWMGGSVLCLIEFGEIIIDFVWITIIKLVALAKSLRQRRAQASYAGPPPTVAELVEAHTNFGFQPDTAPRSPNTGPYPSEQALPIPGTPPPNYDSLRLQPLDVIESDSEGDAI", "sequence (P51170 whole entry, chain 3 of 3)": "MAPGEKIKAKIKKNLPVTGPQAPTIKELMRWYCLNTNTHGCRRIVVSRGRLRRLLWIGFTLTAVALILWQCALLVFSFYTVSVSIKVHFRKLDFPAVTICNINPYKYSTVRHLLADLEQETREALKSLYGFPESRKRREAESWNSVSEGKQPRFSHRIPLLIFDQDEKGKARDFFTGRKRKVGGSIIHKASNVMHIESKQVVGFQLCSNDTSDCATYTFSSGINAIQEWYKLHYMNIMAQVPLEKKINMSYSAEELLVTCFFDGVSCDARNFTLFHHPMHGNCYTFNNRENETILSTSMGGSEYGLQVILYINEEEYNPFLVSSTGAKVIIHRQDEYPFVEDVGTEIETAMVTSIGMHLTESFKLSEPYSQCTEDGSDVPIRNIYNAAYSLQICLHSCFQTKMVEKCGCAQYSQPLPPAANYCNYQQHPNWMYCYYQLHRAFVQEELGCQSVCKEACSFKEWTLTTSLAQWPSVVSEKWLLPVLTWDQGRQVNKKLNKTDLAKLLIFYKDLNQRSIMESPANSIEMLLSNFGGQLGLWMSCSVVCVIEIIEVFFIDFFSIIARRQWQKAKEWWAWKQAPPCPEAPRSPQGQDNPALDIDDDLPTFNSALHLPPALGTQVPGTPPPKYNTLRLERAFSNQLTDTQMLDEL", "assay": "cell-based or functional assay", "note": "Where no end group is shown, it is not given here. [ ]: non-standard residue; d: D form. Nle = CCCC[C@H](N)C(=O)O"}
{"binder": "[dA][dA]LP[Nle]PLDQT[dA][dA]", "note": "[aaLPNlePLDQTaa (SEQ ID NO:5)]", "values": [{"measurement": "IC50, dose response on airway cells (ASL height)", "value": 0.03, "unit": "µM"}]}
